The results in this text go back to patent US20210140973A1 (NITTO BOSEKI, published 2021).

Experiment [1] addresses T1, Myeloma human IgG3 (Sigma-Aldrich Co. LLC) (human).
T1 construct: Bought myeloma protein
The experiment in a line: indirect ELISA, antigen coated 1 µg/mL, antibody 1 µg/mL; no-antigen well 0.048. The protocol: (§1) Myeloma human IgA1 (Abcam), Myeloma human IgA2 (Abcam), Myeloma human IgD (Abcam), Myeloma human IgE (Abcam), Myeloma human IgM (Abcam), Myeloma human IgG1 (EMD Millipore), Myeloma human IgG2 (EMD Millipore), Myeloma human IgG3 (Sigma-Aldrich Co. LLC), and Myeloma human IgG4 (EMD Millipore) were adjusted to 1 μg/mL with PBS(−). The adjusted samples were added to a 96-well plate (Thermo Fisher Scientific) by 100 μL, respectively. The plate was shaken by a shaker under the condition of 700 rpm and 25.0° C. for 1 hour. The solutions were discarded, the plate was cleaned with 300 μL of PBST 3 times, 100 μL of a blocking buffer solution was added to each well, and then the plate was stored at 4° C. one night or more. Similarly, after cleaning with PBST, the MaI4-08 and MaI4-09-produced antibodies were adjusted to 1 μg/mL with an antibody dilute buffer solution and then added to each well by 100 μL, and the plate was shaken under the same condition as mentioned above. Similarly, after cleaning with PBST, a HRP labeled anti-mouse IgG antibody (Abcam) diluted 4000-fold with an antibody dilute buffer solution was added to each well by 100 μL, and the plate was shaken under the same condition as mentioned above. Similarly, after cleaning with PBST, 100 μL of SureBlue (KPL) was added. 5 or 3 minutes later, 100 μL of 0.5 mol/L sulfuric acid (Wako Pure Chemical Corporation) was added to each of MaI4-08 and MaI4-09. Absorbance at a wavelength of 450 nm was measured with a microplate reader (BIO-RAD Laboratories, Inc.). As a result, a strong signal was given to Myeloma human IgG4 as compared to the other samples (Tables 2 and 3, and FIGS. 2 and 3).

For experiment [2], the target named is Myeloma human IgM (Abcam) (human, UniProt P01871-1 1-453). The description is as above. The protocol:
as §1

Experiment [3] addresses Myeloma human IgA1 (Abcam) (human, UniProt P01876-1 1-353). Described as above. The protocol: as §1
Experiment [4] has as its target Myeloma human IgE (Abcam) (human, UniProt P01854-1 1-428). Described as above. The protocol: as §1
For experiment [5], the target named is T2, Myeloma human IgG2 (EMD Millipore) (human).
T2 construct: Bought myeloma protein
Described as above. The protocol: as §1

Experiment [6] addresses Myeloma human IgD (Abcam) (human, UniProt P01880-1 1-384). The experiment is described as above. The protocol: as §1
For experiment [7], the target named is Myeloma human IgA2 (Abcam) (human, UniProt P01877-1 1-340). Described as above. The protocol:
as §1

Experiment [8] has as its target T3, GST-tagged peptide H2 (positions 1 to 274 of the human IgG4 heavy chain constant region) (human, UniProt P01861 1-274 = IgG part).
T3 construct: E. coli lysate on Western blot; not shown: GST tag (glutathione S-transferase) linked to the N terminal, expressed from vector pGEX-6P-1
The experiment in a line: Western blot: E. coli lysate with the GST-tagged peptide, SDS-PAGE, PVDF membrane, POD-labelled antibody diluted 1000-fold, ECL. The protocol: (§2) Based on the designed amino acid sequences, base sequences suitable for expressing protein in E. coli were designed according to the protocol of GenScript Corporation, thereby preparing vector pGEX-6P-1 (GE Healthcare Bio-Sciences Corp.) to which the respective base sequences are inserted. The prepared expression plasmid was introduced to E. coli BL 21 strain, thereby obtaining a transformant. The transformant was cultured by an ordinary method and a protein expression was induced by IPTG. After the cells were collected by centrifugation, the cells were dissolved with an ordinary lysis solution, and subjected to ultrasonication. 6 μL of an SDS sample buffer solution was added to 6 μL of the obtained lysate. The respective prepared samples were subjected to a heat treatment at 95° C. for 5 minutes. 10 μL of the E. coli disrupted sample was added to each well of 5 to 20% electrophoresis gel (Atto Corportation) to which an SDS electrophoresis buffer solution was added. Similarly, a molecular weight standard (Bio-Rad Laboratories, Inc.) was added to each well and electrophoresed. After completing the electrophoresis, the electrophoresis gel was transcribed to a PVDF membrane (Millipore Corporation) with a transfer buffer solution. The PVDF membrane was immersed in a membrane blocking buffer solution, and then shaking was carried out at room temperature for 30 minutes. Amino groups of MaI4-08, MaI4-09, and MaI4-05-produced antibodies were subjected to a POD labeling treatment with a POD labeling kit (Dojindo Molecular Technologies, Inc.). The obtained labeled antibodies each were diluted 1000-fold by PBST. After the PVDF membrane was cleaned with PBST, the antibody solutions prepared each were added to the PVDF membrane, and then the reaction was performed at room temperature for 1 hour. After the PVDF membrane was cleaned by PBST, a signal was detected with ECL Prime Western Blotting Detection Reagents (GE Healthcare) with Image Quant Las4000.
On the technique in general: Immunoblotting shows a protein as a band on a membrane.

Experiment [9] concerns the target T4, GST-tagged peptide H12 (positions 99 to 220 of the human IgG4 heavy chain constant region) (human, UniProt P01861 99-220 = IgG part).
T4 construct: E. coli lysate on Western blot; not shown: GST tag (glutathione S-transferase) linked to the N terminal, expressed from vector pGEX-6P-1
The description is as above. How it is done:
as §2

Experiment [10] has as its target T5, GST-tagged peptide H5 (positions 1 to 110 of the human IgG4 heavy chain constant region) (human, UniProt P01861 1-110 = IgG part).
T5 construct: E. coli lysate on Western blot; not shown: GST tag (glutathione S-transferase) linked to the N terminal, expressed from vector pGEX-6P-1
Described as above. The protocol:
as §2

The target in experiment [11] is T6, GST-tagged peptide H4 (positions 1 to 165 of the human IgG4 heavy chain constant region) (human, UniProt P01861 1-165 = IgG part).
T6 construct: E. coli lysate on Western blot; not shown: GST tag (glutathione S-transferase) linked to the N terminal, expressed from vector pGEX-6P-1
Described as above. How it is done: as §2

Experiment [12] concerns the target T7, GST-tagged peptide H6 (positions 1 to 55 of the human IgG4 heavy chain constant region) (human, UniProt P01859 1-55 = IgG part).
T7 construct: E. coli lysate on Western blot; not shown: GST tag (glutathione S-transferase) linked to the N terminal, expressed from vector pGEX-6P-1
The description is as above. How it is done: as §2

In experiment [13] the target is T8, GST-tagged peptide H11 (positions 275 to 327 of the human IgG4 heavy chain constant region) (human, UniProt P01861 275-325 = IgG part).
T8 construct: E. coli lysate on Western blot; not shown: GST tag (glutathione S-transferase) linked to the N terminal, expressed from vector pGEX-6P-1
Described as above. The protocol: as §2

The target in experiment [14] is T9, GST-tagged peptide H3 (positions 1 to 220 of the human IgG4 heavy chain constant region) (human, UniProt P01861 1-220 = IgG part).
T9 construct: E. coli lysate on Western blot; not shown: GST tag (glutathione S-transferase) linked to the N terminal, expressed from vector pGEX-6P-1
Described as above. How it is done:
as §2

T1 sequence (constant, as listed by the source limits assumed): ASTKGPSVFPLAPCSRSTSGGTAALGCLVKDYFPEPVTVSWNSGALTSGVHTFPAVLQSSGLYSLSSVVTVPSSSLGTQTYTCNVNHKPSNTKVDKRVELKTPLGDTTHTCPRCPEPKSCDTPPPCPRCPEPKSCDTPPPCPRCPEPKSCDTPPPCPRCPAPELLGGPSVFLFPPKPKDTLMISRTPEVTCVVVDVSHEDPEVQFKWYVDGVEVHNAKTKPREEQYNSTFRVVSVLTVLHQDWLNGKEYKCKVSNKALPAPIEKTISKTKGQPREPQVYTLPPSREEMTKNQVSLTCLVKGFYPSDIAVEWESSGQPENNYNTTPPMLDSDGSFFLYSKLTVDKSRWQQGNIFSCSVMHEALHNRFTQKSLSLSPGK
T9 sequence (P01861 1-220): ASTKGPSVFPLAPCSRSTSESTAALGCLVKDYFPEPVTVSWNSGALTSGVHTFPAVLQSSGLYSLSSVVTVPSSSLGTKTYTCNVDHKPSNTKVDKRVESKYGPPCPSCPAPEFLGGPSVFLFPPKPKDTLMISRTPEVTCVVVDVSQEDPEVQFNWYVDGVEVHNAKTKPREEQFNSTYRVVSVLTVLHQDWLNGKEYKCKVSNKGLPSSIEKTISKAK
Chain of Myeloma human IgD (Abcam) (P01880 other isoform, or with tags, fused parts or gaps): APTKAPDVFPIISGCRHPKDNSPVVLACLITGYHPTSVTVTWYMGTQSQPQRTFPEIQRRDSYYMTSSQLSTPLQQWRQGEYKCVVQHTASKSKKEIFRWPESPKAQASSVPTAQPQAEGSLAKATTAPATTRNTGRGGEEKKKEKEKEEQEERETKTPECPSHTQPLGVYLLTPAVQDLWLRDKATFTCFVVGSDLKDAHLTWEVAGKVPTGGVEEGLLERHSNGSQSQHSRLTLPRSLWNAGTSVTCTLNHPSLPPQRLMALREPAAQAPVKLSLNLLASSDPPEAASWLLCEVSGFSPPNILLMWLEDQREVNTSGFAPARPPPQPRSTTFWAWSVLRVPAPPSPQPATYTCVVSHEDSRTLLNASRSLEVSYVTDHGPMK
Chain of Myeloma human IgE (Abcam) (P01854 other isoform, or with tags, fused parts or gaps): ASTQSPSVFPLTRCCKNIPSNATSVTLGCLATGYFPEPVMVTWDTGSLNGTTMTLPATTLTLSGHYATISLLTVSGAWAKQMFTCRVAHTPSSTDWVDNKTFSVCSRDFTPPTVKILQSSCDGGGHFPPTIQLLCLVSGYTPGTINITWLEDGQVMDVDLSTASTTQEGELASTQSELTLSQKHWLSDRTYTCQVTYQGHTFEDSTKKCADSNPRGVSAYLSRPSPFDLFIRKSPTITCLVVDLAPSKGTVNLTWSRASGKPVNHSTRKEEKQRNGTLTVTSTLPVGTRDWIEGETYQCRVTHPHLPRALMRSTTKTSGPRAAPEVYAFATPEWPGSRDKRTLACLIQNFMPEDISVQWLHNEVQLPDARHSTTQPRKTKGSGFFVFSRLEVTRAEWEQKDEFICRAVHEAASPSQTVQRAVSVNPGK
Chain of Myeloma human IgA2 (Abcam) (P01877 other isoform, or with tags, fused parts or gaps): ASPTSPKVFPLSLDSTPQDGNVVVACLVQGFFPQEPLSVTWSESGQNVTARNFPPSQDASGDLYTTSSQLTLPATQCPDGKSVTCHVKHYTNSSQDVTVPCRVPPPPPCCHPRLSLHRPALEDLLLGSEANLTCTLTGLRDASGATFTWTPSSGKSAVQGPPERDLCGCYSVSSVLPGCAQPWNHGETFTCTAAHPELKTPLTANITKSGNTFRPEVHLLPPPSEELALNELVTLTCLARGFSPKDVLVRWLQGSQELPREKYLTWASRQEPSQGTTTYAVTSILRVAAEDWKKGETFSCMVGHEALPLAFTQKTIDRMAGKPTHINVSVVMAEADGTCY
T3 sequence (P01861 1-274): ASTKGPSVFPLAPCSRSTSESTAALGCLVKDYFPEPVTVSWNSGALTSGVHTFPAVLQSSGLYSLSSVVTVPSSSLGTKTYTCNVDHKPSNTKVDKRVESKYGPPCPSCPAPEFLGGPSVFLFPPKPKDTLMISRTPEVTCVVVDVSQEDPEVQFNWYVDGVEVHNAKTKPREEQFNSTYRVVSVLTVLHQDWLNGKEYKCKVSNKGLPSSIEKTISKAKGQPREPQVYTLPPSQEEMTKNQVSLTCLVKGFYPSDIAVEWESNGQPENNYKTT
Chain of Myeloma human IgM (Abcam) (P01871 other isoform, or with tags, fused parts or gaps): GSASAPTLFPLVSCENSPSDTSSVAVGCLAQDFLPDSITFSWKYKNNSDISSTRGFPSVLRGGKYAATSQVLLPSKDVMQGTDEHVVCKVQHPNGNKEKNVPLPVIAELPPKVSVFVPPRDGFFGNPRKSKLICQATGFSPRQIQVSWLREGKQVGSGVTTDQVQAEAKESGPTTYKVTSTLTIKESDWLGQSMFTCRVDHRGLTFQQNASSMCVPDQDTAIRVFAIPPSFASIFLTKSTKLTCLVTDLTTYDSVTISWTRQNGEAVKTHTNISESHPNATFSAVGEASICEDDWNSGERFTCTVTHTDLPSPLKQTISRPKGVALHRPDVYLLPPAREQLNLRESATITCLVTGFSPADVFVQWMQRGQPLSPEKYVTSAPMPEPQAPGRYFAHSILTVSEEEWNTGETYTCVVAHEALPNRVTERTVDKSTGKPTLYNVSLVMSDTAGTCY
Chain of Myeloma human IgA1 (Abcam) (P01876 other isoform, or with tags, fused parts or gaps): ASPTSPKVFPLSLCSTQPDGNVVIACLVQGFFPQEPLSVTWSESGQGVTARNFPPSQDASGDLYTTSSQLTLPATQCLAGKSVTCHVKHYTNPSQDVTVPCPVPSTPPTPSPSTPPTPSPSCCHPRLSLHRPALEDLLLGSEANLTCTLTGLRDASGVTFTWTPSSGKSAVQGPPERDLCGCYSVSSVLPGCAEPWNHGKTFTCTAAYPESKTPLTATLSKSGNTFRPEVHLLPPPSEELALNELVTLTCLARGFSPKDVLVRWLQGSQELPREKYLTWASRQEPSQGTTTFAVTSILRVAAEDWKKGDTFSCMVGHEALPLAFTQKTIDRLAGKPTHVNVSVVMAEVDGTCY
T5 sequence (P01861 1-110): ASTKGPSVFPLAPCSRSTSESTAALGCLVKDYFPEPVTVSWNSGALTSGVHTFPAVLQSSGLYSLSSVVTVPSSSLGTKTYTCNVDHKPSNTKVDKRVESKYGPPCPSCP
T2 sequence (constant, as listed by the source limits assumed): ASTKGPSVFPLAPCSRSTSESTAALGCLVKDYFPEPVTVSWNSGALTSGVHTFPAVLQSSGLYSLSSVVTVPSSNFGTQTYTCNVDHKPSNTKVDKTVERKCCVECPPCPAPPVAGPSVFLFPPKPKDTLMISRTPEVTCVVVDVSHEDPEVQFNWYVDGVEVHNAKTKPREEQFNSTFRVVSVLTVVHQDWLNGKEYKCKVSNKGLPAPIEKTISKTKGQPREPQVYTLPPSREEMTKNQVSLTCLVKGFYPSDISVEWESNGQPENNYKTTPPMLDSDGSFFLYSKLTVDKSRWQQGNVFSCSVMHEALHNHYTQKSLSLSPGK
T7 sequence (P01859 1-55): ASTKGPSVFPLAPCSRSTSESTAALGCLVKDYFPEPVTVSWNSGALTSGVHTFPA
T4 sequence (P01861 99-220): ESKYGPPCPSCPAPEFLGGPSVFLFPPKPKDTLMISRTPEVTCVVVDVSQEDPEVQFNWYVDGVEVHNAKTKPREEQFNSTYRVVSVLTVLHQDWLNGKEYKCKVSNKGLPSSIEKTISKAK
T6 sequence (P01861 1-165): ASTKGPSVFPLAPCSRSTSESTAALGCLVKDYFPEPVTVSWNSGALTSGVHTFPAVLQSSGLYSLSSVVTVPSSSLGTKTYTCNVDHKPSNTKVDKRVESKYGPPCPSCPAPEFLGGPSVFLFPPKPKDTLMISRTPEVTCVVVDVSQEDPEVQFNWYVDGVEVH
T8 sequence (P01861 other isoform, or with tags, fused parts or gaps): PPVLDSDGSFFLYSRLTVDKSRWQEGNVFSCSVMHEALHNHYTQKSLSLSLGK

B1: MaI4-09-produced antibody (antibody, IgG1, V domains shown)
VH: EVQLQQSGPELVKPGASVKMSCKASGYTFTSSVMHWMKQKPGQGLEWIGYINPYNDGTRYNEKFQGKATLTSDKSSNTAYMELSSLTSEDSAVYYCTRSFYYGNSHVLFAYWGQGTLVTVSA
VL: DIKMTQSPSSIYPSLGERVTITCKASQDINSYLSWFQQKPGKSPKTLIYRANRLVDGVPSRFSGSGSGQDYSLTISSLEYEDMGIYHCLQYDELPYTFGGGTTLEIK
notes: Purified on protein G from hybridoma culture supernatant; POD-labelled for the Western blots
Regarding B1, the “absorbance at 450 nm” value in [1] turned out to be 0.052; in [2] it was 0.055; in [3], 0.058; in experiment [4], 0.05; in experiment [5], 0.064; in experiment [6] it was 0.051. In experiment [7], the “absorbance at 450 nm” value was 0.05. In addition, the binding result in [8], in experiment [9], in [10], in experiment [11], in experiment [12] and in [13] was “no binding” throughout. Further, the binding result in experiment [14] is “no binding”.
